Experiments:
[1] = biological target: T1, Cbp80 (tag not named for Figures 4C-D and 5D) (S. cerevisiae, UniProt P34160 1-861); assay: co-IP
T1 sequence (looked up): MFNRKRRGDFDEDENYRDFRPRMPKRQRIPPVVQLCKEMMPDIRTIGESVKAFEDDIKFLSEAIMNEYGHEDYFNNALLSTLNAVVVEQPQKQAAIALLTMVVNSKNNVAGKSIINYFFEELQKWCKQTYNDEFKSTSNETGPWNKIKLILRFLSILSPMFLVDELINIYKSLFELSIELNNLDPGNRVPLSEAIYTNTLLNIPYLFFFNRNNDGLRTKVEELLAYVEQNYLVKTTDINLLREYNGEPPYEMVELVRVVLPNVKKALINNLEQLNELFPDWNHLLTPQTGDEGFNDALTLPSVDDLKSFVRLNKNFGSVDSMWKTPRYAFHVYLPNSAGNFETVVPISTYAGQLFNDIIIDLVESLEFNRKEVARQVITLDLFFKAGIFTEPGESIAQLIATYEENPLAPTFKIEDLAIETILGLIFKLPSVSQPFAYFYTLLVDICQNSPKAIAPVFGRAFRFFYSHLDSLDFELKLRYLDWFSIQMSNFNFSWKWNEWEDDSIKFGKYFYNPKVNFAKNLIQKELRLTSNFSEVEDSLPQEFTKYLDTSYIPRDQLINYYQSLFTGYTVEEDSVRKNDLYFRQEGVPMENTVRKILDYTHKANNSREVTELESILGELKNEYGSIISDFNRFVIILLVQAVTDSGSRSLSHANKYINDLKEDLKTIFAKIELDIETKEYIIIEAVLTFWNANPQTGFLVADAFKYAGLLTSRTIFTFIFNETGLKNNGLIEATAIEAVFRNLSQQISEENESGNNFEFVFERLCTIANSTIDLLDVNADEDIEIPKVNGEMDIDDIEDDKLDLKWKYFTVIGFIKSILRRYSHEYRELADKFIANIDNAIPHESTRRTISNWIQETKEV

[2] = biological target: T2, Mex67 (S. cerevisiae, UniProt Q99257 1-599); assay: co-IP
T2 sequence (looked up): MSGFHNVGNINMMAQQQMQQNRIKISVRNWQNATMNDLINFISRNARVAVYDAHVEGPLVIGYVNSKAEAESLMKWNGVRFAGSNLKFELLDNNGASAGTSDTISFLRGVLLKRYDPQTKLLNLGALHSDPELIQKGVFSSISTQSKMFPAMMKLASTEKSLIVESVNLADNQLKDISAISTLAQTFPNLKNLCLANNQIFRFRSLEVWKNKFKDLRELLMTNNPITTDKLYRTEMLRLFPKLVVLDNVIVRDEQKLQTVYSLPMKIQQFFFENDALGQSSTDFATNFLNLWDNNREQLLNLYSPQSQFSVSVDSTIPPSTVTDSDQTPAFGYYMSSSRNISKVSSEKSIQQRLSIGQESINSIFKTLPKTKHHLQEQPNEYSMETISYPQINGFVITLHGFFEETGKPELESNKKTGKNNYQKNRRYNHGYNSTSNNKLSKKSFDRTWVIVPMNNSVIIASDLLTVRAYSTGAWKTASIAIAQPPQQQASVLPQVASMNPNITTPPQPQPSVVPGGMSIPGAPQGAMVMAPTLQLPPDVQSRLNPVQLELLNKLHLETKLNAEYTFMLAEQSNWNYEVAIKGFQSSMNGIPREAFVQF

B1: Npl3 (natural protein, S. cerevisiae, UniProt Q01560 1-414, looked up)
chain: MSEAQETHVEQLPESVVDAPVEEQHQEPPQAPDAPQEPQVPQESAPQESAPQEPPAPQEQNDVPPPSNAPIYEGEESHSVQDYQEAHQHHQPPEPQPYYPPPPPGEHMHGRPPMHHRQEGELSNTRLFVRPFPLDVQESELNEIFGPFGPMKEVKILNGFAFVEFEEAESAAKAIEEVHGKSFANQPLEVVYSKLPAKRYRITMKNLPEGCSWQDLKDLARENSLETTFSSVNTRDFDGTGALEFPSEEILVEALERLNNIEFRGSVITVERDDNPPPIRRSNRGGFRGRGGFRGGFRGGFRGGFSRGGFGGPRGGFGGPRGGYGGYSRGGYGGYSRGGYGGSRGGYDSPRGGYDSPRGGYSRGGYGGPRNDYGPPRGSYGGSRGGYDGPRGDYGPPRDAYRTRDAPRERSPTR
- co-IP signal in cet1-2 relative to wild type [1]: ~60%
- drop of the co-IP signal in cet1-2 and rat1-1 cells relative to wild type [2]: ~20%
